Measured values taken from the Human Domainome abundance scans (Beltran et al. 2025).
± gives the uncertainty stated by the source.

B1: POU domain, class 3, transcription factor 2, residues 262 to 338; numbered along this chain, P20265 (parent)
chain: EDTPTSDDLEQFAKQFKQRRIKLGFTQADVGLALGTLYGNVFSQTTICRFEALQLSFKNMCKLKPLLNKWLEEADSS

Variants of: B1
Experiment: abundance fitness (aPCA) (normalised: wild type 0, dead -1); higher = more abundant; growth selection in yeast, the domain comes from the species named
Conditions: Homo sapiens

Variant	abundance fitness
EDTPTSDDLEQFAKQFKQRRIKLGFTQADVGLALGTLYGNVFSQTTICRFEALQLSFKNMCKLKPPLNKWLEEADSS [L66P]	-0.437 ± 0.064
EDTPTSDDLEQFAKQFKQRRIKLGFTQADVGLALGTLYGNVFSQTTICRFEALQLSFKNMCKLKPILNKWLEEADSS [L66I]	-0.071 ± 0.063
EDTPTSDDLEQFAKQFKQRRIKLGFTQADVGLALGTLYGNVFSQTTICRFEALQLSFKNMCKLKPVLNKWLEEADSS [L66V]	-0.077 ± 0.03
EDTPTSDDLEQFAKQFKQRRIKLGFTQADVGLALGTLYGNVFSQTTICRFEALQLSFKNMCKLKPYLNKWLEEADSS [L66Y]	-0.22 ± 0.081
EDTPTSDDLEQFAKQFKQRRIKLGFTQADVGLALGTLYGNVFSQTTICRFEALQLSFKNMCKLKPALNKWLEEADSS [L66A]	-0.137 ± 0.034
EDTPTSDDLEQFAKQFKQRRIKLGFTQADVGLALGTLYGNVFSQTTICRFEALQLSFKNMCKLKPNLNKWLEEADSS [L66N]	-0.504 ± 0.1
EDTPTSDDLEQFAKQFKQRRIKLGFTQADVGLALGTLYGNVFSQTTICRFEALQLSFKNMCKLKPMLNKWLEEADSS [L66M]	-0.015 ± 0.042
EDTPTSDDLEQFAKQFKQRRIKLGFTQADVGLALGTLYGNVFSQTTICRFEALQLSFKNMCKLKPWLNKWLEEADSS [L66W]	-0.148 ± 0.034
EDTPTSDDLEQFAKQFKQRRIKLGFTQADVGLALGTLYGNVFSQTTICRFEALQLSFKNMCKLKPQLNKWLEEADSS [L66Q]	-0.233 ± 0.046
EDTPTSDDLEQFAKQFKQRRIKLGFTQADVGLALGTLYGNVFSQTTICRFEALQLSFKNMCKLKPDLNKWLEEADSS [L66D]	-0.767 ± 0.23
EDTPTSDDLEQFAKQFKQRRIKLGFTQADVGLALGTLYGNVFSQTTICRFEALQLSFKNMCKLKPSLNKWLEEADSS [L66S]	-0.423 ± 0.041
EDTPTSDDLEQFAKQFKQRRIKLGFTQADVGLALGTLYGNVFSQTTICRFEALQLSFKNMCKLKPGLNKWLEEADSS [L66G]	-0.536 ± 0.037
EDTPTSDDLEQFAKQFKQRRIKLGFTQADVGLALGTLYGNVFSQTTICRFEALQLSFKNMCKLKPFLNKWLEEADSS [L66F]	-0.05 ± 0.048
EDTPTSDDLEQFAKQFKQRRIKLGFTQADVGLALGTLYGNVFSQTTICRFEALQLSFKNMCKLKPHLNKWLEEADSS [L66H]	-0.274 ± 0.08
EDTPTSDDLEQFAKQFKQRRIKLGFTQADVGLALGTLYGNVFSQTTICRFEALQLSFKNMCKLKPELNKWLEEADSS [L66E]	-0.637 ± 0.061
EDTPTSDDLEQFAKQFKQRRIKLGFTQADVGLALGTLYGNVFSQTTICRFEALQLSFKNMCKLKPKLNKWLEEADSS [L66K]	-0.096 ± 0.043
EDTPTSDDLEQFAKQFKQRRIKLGFTQADVGLALGTLYGNVFSQTTICRFEALQLSFKNMCKLKPCLNKWLEEADSS [L66C]	-0.239 ± 0.05
EDTPTSDDLEQFAKQFKQRRIKLGFTQADVGLALGTLYGNVFSQTTICRFEALQLSFKNMCKLKPRLNKWLEEADSS [L66R]	-0.242 ± 0.029
EDTPTSDDLEQFAKQFKQRRIKLGFTQADVGLALGTLYGNVFSQTTICRFEALQLSFKNMCKLPPLLNKWLEEADSS [K64P]	-0.931 ± 0.19
EDTPTSDDLEQFAKQFKQRRIKLGFTQADVGLALGTLYGNVFSQTTICRFEALQLSFKNMCKLQPLLNKWLEEADSS [K64Q]	-0.067 ± 0.045
EDTPTSDDLEQFAKQFKQRRIKLGFTQADVGLALGTLYGNVFSQTTICRFEALQLSFKNMCKLIPLLNKWLEEADSS [K64I]	-0.246 ± 0.083
EDTPTSDDLEQFAKQFKQRRIKLGFTQADVGLALGTLYGNVFSQTTICRFEALQLSFKNMCKLNPLLNKWLEEADSS [K64N]	-0.944 ± 0.26
EDTPTSDDLEQFAKQFKQRRIKLGFTQADVGLALGTLYGNVFSQTTICRFEALQLSFKNMCKLWPLLNKWLEEADSS [K64W]	-0.199 ± 0.04
EDTPTSDDLEQFAKQFKQRRIKLGFTQADVGLALGTLYGNVFSQTTICRFEALQLSFKNMCKLHPLLNKWLEEADSS [K64H]	-0.051 ± 0.074

Variant	abundance fitness
EDTPTSDDLEQFAKQFKQRRIKLGFTQADVGLALGTLYGNVFSQTTICRFEALQLSFKNMCKLMPLLNKWLEEADSS [K64M]	-0.06 ± 0.05
EDTPTSDDLEQFAKQFKQRRIKLGFTQADVGLALGTLYGNVFSQTTICRFEALQLSFKNMCKLYPLLNKWLEEADSS [K64Y]	-0.019 ± 0.068
EDTPTSDDLEQFAKQFKQRRIKLGFTQADVGLALGTLYGNVFSQTTICRFEALQLSFKNMCKLVPLLNKWLEEADSS [K64V]	-0.155 ± 0.034
EDTPTSDDLEQFAKQFKQRRIKLGFTQADVGLALGTLYGNVFSQTTICRFEALQLSFKNMCKLFPLLNKWLEEADSS [K64F]	-0.264 ± 0.1
EDTPTSDDLEQFAKQFKQRRIKLGFTQADVGLALGTLYGNVFSQTTICRFEALQLSFKNMCKLSPLLNKWLEEADSS [K64S]	-0.226 ± 0.042
EDTPTSDDLEQFAKQFKQRRIKLGFTQADVGLALGTLYGNVFSQTTICRFEALQLSFKNMCKLEPLLNKWLEEADSS [K64E]	-0.3 ± 0.046
EDTPTSDDLEQFAKQFKQRRIKLGFTQADVGLALGTLYGNVFSQTTICRFEALQLSFKNMCKLLPLLNKWLEEADSS [K64L]	-0.131 ± 0.037
EDTPTSDDLEQFAKQFKQRRIKLGFTQADVGLALGTLYGNVFSQTTICRFEALQLSFKNMCKLRPLLNKWLEEADSS [K64R]	-0.092 ± 0.031
EDTPTSDDLEQFAKQFKQRRIKLGFTQADVGLALGTLYGNVFSQTTICRFEALQLSFKNMCKLTPLLNKWLEEADSS [K64T]	-0.118 ± 0.045
EDTPTSDDLEQFAKQFKQRRIKLGFTQADVGLALGTLYGNVFSQTTICRFEALQLSFKNMCKLGPLLNKWLEEADSS [K64G]	-0.449 ± 0.037
EDTPTSDDLEQFAKQFKQRRIKLGFTQADVGLALGTLYGNVFSQTTICRFEALQLSFKNMCKLKPLCNKWLEEADSS [L67C]	-0.504 ± 0.23
EDTPTSDDLEQFAKQFKQRRIKLGFTQADVGLALGTLYGNVFSQTTICRFEALQLSFKNMCKLKPLVNKWLEEADSS [L67V]	-0.525 ± 0.099
EDTPTSDDLEQFAKQFKQRRIKLGFTQADVGLALGTLYGNVFSQTTICRFEALQLSFKNMCKLKPLMNKWLEEADSS [L67M]	0.006 ± 0.085
EDTPTSDDLEQFAKQFKQRRIKLGFTQADVGLALGTLYGNVFSQTTICRFEALQLSFKNMCKLKPLPNKWLEEADSS [L67P]	-0.654 ± 0.16
EDTPTSDDLEQFAKQFKQRRIKLGFTQADVGLALGTLYGNVFSQTTICRFEALQLSFKNMCKLKPLENKWLEEADSS [L67E]	-0.936 ± 0.27
EDTPTSDDLEQFAKQFKQRRIKLGFTQADVGLALGTLYGNVFSQTTICRFEALQLSFKNMCKLKPLTNKWLEEADSS [L67T]	-0.407 ± 0.32
EDTPTSDDLEQFAKQFKQRRIKLGFTQADVGLALGTLYGNVFSQTTICRFEALQLSFKNMCKLKPLANKWLEEADSS [L67A]	-0.553 ± 0.12
EDTPTSDDLEQFAKQFKQRRIKLGFTQADVGLALGTLYGNVFSQTTICRFEALQLSFKNMCKLKPLSNKWLEEADSS [L67S]	-0.619 ± 0.13
EDTPTSDDLEQFAKQFKQRRIKLGFTQADVGLALGTLYGNVFSQTTICRFEALQLSFKNMCKLKPLDNKWLEEADSS [L67D]	-0.759 ± 0.43
EDTPTSDDLEQFAKQFKQRRIKLGFTQADVGLALGTLYGNVFSQTTICRFEALQLSFKNMCKLKPLKNKWLEEADSS [L67K]	-0.688 ± 0.18
EDTPTSDDLEQFAKQFKQRRIKLGFTQADVGLALGTLYGNVFSQTTICRFEALQLSFKNMCKLKPLFNKWLEEADSS [L67F]	-0.399 ± 0.2
EDTPTSDDLEQFAKQFKQRRIKLGFTQADVGLALGTLYGNVFSQTTICRFEALQLSFKNMCKLKPLGNKWLEEADSS [L67G]	-1.05 ± 0.21
EDTPTSDDLEQFAKQFKQRRIKLGFTQADVGLALGTLYGNVFSQTTICRFEALQLSFKNMCKLKPLWNKWLEEADSS [L67W]	-0.798 ± 0.16
EDTPTSDDLEQFAKQFKQRRIKLGFTQADVGLALGTLYGNVFSQTTICRFEALQLSFKNMCKLKTLLNKWLEEADSS [P65T]	-0.059 ± 0.12

Variant	abundance fitness
EDTPTSDDLEQFAKQFKQRRIKLGFTQADVGLALGTLYGNVFSQTTICRFEALQLSFKNMCKLKALLNKWLEEADSS [P65A]	-0.139 ± 0.094
EDTPTSDDLEQFAKQFKQRRIKLGFTQADVGLALGTLYGNVFSQTTICRFEALQLSFKNMCKLKVLLNKWLEEADSS [P65V]	-0.082 ± 0.074
EDTPTSDDLEQFAKQFKQRRIKLGFTQADVGLALGTLYGNVFSQTTICRFEALQLSFKNMCKLKKLLNKWLEEADSS [P65K]	-0.213 ± 0.22
EDTPTSDDLEQFAKQFKQRRIKLGFTQADVGLALGTLYGNVFSQTTICRFEALQLSFKNMCKLKGLLNKWLEEADSS [P65G]	-0.108 ± 0.05
EDTPTSDDLEQFAKQFKQRRIKLGFTQADVGLALGTLYGNVFSQTTICRFEALQLSFKNMCKLKHLLNKWLEEADSS [P65H]	-0.034 ± 0.25
EDTPTSDDLEQFAKQFKQRRIKLGFTQADVGLALGTLYGNVFSQTTICRFEALQLSFKNMCKLKCLLNKWLEEADSS [P65C]	0.038 ± 0.2
EDTPTSDDLEQFAKQFKQRRIKLGFTQADVGLALGTLYGNVFSQTTICRFEALQLSFKNMCKLKELLNKWLEEADSS [P65E]	-0.133 ± 0.072
EDTPTSDDLEQFAKQFKQRRIKLGFTQADVGLALGTLYGNVFSQTTICRFEALQLSFKNMCKLKRLLNKWLEEADSS [P65R]	-0.182 ± 0.051
EDTPTSDDLEQFAKQFKQRRIKLGFTQADVGLALGTLYGNVFSQTTICRFEALQLSFKNMCKLKDLLNKWLEEADSS [P65D]	-0.118 ± 0.097
EDTPTSDDLEQFAKQFKQRRIKLGFTQADVGLALGTLYGNVFSQTTICRFEALQLSFKNMCKLKSLLNKWLEEADSS [P65S]	-0.38 ± 0.19
EDTPTSDDLEQFAKQFKQRRIKLGFTQADVGLALGTLYGNVFSQTTICRFEALQLSFKNMCKLKLLLNKWLEEADSS [P65L]	-0.375 ± 0.13
EDTPTSDDLEQFAKQFKQRRIKLGFTQADVGLALGTLYGNVFSQTTICRFEALQLSFKNMCKLKQLLNKWLEEADSS [P65Q]	0.124 ± 0.14
EDTPTSDDLEQFAKQFKQRRIKLGFTQADVGLALGTLYGNVFSQTTICRFEALQLSFKNMCKLKWLLNKWLEEADSS [P65W]	-0.201 ± 0.092
EDTPTSDDLEQFAKQFKQRRIKLGFTQADVGLALGTLYGNVFSQTTICRFEALQLSFKNMCKLKNLLNKWLEEADSS [P65N]	-0.138 ± 0.17
EDTPTSDDLEQFAKQFKQRRIKLGFTQADVGLALGTLYGNVFSQTTICRFEALQLSFKNMCKLKYLLNKWLEEADSS [P65Y]	0.137 ± 0.23
EDTPTSDDLEQFAKQFKQRRIKLGFTQADVGLALGTLYGNVFSQTTICRFEALQLSFKNMCKLKPLLAKWLEEADSS [N68A]	-0.007 ± 0.077
EDTPTSDDLEQFAKQFKQRRIKLGFTQADVGLALGTLYGNVFSQTTICRFEALQLSFKNMCKLKPLLQKWLEEADSS [N68Q]	-0.313 ± 0.43
EDTPTSDDLEQFAKQFKQRRIKLGFTQADVGLALGTLYGNVFSQTTICRFEALQLSFKNMCKLKPLLCKWLEEADSS [N68C]	-0.096 ± 0.13
EDTPTSDDLEQFAKQFKQRRIKLGFTQADVGLALGTLYGNVFSQTTICRFEALQLSFKNMCKLKPLLPKWLEEADSS [N68P]	-0.98 ± 0.47
EDTPTSDDLEQFAKQFKQRRIKLGFTQADVGLALGTLYGNVFSQTTICRFEALQLSFKNMCKLKPLLLKWLEEADSS [N68L]	0.004 ± 0.07
EDTPTSDDLEQFAKQFKQRRIKLGFTQADVGLALGTLYGNVFSQTTICRFEALQLSFKNMCKLKPLLGKWLEEADSS [N68G]	0.074 ± 0.065
EDTPTSDDLEQFAKQFKQRRIKLGFTQADVGLALGTLYGNVFSQTTICRFEALQLSFKNMCKLKPLLDKWLEEADSS [N68D]	-0.182 ± 0.12
EDTPTSDDLEQFAKQFKQRRIKLGFTQADVGLALGTLYGNVFSQTTICRFEALQLSFKNMCKLKPLLMKWLEEADSS [N68M]	-0.284 ± 0.27
